This is an account of results in publication PMC6261651, “A functional proteomics platform to reveal the sequence determinants of lysine methyltransferase substrate selectivity” (Science Advances, 2018).

The target in test [1] is T1, SMYD2 (Homo sapiens, UniProt Q9NRG4).
T1 construct: SMYD2 (full length) was expressed as a N-terminal glutathione S-transferase (GST) fusion; GST (N); made in house; host or cells: Escherichia coli BL21(DE3)
The experiment in a line: In vitro SMYD2 methyltransferase assay with protein substrates (SDS-PAGE, 3H fluorography). The test is classed as biochemical. The conditions noted are these: 1 μg of KMT, 1 μg of substrate, 1 μCi 3H-SAM, 1 hour, room temperature; 3H fluorography (Fig. 5A, 5B, fig. S5A). Here is the method: Reactions (10 μl) containing 1 μg of KMT, 1 μg of the indicated substrates, and 1 μCi of ^3H-SAM (PerkinElmer) in KMT reaction buffer were incubated for 1 hour at room temperature. Reactions were quenched by the addition of SDS loading buffer and resolved by SDS–polyacrylamide gel electrophoresis. Following the detection of total protein by Coomassie staining, gels were treated with EN^3HANCE (PerkinElmer) and dried, and methylated proteins were detected by autoradiography.
Fig. S5. In vitro SMYD2 assays with protein substrates. (A) Coomassie stained SDS-PAGE of recombinant control (HIS-GST), known substrates (p53, MAPKAPK3), and predicted substrates (PRDM11, GDAP1, MAP3K12) in the absence and presence of SMYD2. Reactions were carried out with 1 μg of SMYD2, 1 μg of substrate, and 1 μCi of 3H-SAM. 3H fluorograph shown below after 24 hour exposure at -80 °C (B) Cartoon repre- sentation of ZPK (PDB:
5CEN) showing plus and minus three amino acids from the target lysine (PO) as stick models.
(1 picture or pasted object on this page, not shown here)

For test [2], the target named is T1, SMYD2. The test can be described thus: SPA kinetic analysis of SMYD2 methylation of peptide substrates. Type of test: biochemical. The settings on record: 200 nM SMYD2, 50 μM SAM, varied substrate concentration, mean of three independent measurements (Fig. 4D). Here is the method:
Reactions (10 μl) containing 1 μg of KMT, 1 μg of a K-OPL set, and 1 μCi of ^3H-SAM (PerkinElmer) in KMT reaction buffer [50 mM tris (pH 8.8), 5 mM MgCl2, and 4 mM dithiothreitol] were incubated for 1 hour at room temperature. Reactions were stopped by adding trifluoracetic acid to a final concentration of 0.5%, neutralized by diluting with 135 μl of 50 mM NaHCO3, and transferred to streptavidin-coated FlashPlates (PerkinElmer). Plates were incubated for 15 min, sealed, and counted in a MicroBeta2 liquid scintillation counter (PerkinElmer) for 1 min per sample. Initial rate measure and kinetic analysis were performed using the same procedure with 200 nM SMYD2, 50 μM SAM (5:1 cold/hot ratio), and 80 μM substrate (initial rate measurements) or as indicated (kinetic analysis). IC50 measurements were performed using the same conditions with 5 μM PER2 peptide as a substrate.

Residue numbers refer to the chain shown, from its start. Names and notes keep the numbering of the source. “Also recorded” adds a separate entry of the source.

T1 sequence (Q9NRG4 whole entry, the tested form may be a part): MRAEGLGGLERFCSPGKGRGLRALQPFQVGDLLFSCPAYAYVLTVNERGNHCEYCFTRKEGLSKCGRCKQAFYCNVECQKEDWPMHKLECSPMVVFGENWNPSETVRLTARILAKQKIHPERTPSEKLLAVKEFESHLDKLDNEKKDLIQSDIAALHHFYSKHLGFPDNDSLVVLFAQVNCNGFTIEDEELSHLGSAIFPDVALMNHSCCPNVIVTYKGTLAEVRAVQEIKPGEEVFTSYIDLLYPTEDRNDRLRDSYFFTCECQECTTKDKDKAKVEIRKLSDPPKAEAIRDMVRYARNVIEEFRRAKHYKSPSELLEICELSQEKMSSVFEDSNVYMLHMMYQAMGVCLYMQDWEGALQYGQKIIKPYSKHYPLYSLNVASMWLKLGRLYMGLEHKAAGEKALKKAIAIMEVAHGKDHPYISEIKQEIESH

B1: ZPK: recombinant protein, predicted SMYD2 substrate (protein, UniProt Q12852 1-859, looked up)
Mitogen-activated protein …: MACLHETRTPSPSFGGFVSTLSEASMRKLDPDTSDCTPEKDLTPTHVLQLHEQDAGGPGGAAGSPESRASRVRADEVRLQCQSGSGFLEGLFGCLRPVWTMIGKAYSTEHKQQQEDLWEVPFEEILDLQWVGSGAQGAVFLGRFHGEEVAVKKVRDLKETDIKHLRKLKHPNIITFKGVCTQAPCYCILMEFCAQGQLYEVLRAGRPVTPSLLVDWSMGIAGGMNYLHLHKIIHRDLKSPNMLITYDDVVKISDFGTSKELSDKSTKMSFAGTVAWMAPEVIRNEPVSEKVDIWSFGVVLWELLTGEIPYKDVDSSAIIWGVGSNSLHLPVPSSCPDGFKILLRQCWNSKPRNRPSFRQILLHLDIASADVLSTPQETYFKSQAEWREEVKLHFEKIKSEGTCLHRLEEELVMRRREELRHALDIREHYERKLERANNLYMELNALMLQLELKERELLRREQALERRCPGLLKPHPSRGLLHGNTMEKLIKKRNVPQKLSPHSKRPDILKTESLLPKLDAALSGVGLPGCPKGPPSPGRSRRGKTRHRKASAKGSCGDLPGLRTAVPPHEPGGPGSPGGLGGGPSAWEACPPALRGLHHDLLLRKMSSSSPDLLSAALGSRGRGATGGAGDPGSPPPARGDTPPSEGSAPGSTSPDSPGGAKGEPPPPVGPGEGVGLLGTGREGTSGRGGSRAGSQHLTPAALLYRAAVTRSQKRGISSEEEEGEVDSEVELTSSQRWPQSLNMRQSLSTFSSENPSDGEEGTASEPSPSGTPEVGSTNTDERPDERSDDMCSQGSEIPLDPPPSEVIPGPEPSSLPIPHQELLRERGPPNSEDSDCDSTELDNSNSVDALRPPASLPP
Take B1: in the test with SMYD2 [1], the “methylation of recombinant protein substrate by SMYD2” value (“methylation … by SMYD2” for short) is on record as “methylated by SMYD2; also recorded: poor SMYD2 substrates”.

B2: GDAP1: recombinant GDAP1 (full length), Abcam (protein, UniProt Q8TB36 1-358, looked up)
chain: MAERQEEQRGSPPLRAEGKADAEVKLILYHWTHSFSSQKVRLVIAEKALKCEEHDVSLPLSEHNEPWFMRLNSTGEVPVLIHGENIICEATQIIDYLEQTFLDERTPRLMPDKESMYYPRVQHYRELLDSLPMDAYTHGCILHPELTVDSMIPAYATTRIRSQIGNTESELKKLAEENPDLQEAYIAKQKRLKSKLLDHDNVKYLKKILDELEKVLDQVETELQRRNEETPEEGQQPWLCGESFTLADVSLAVTLHRLKFLGFARRNWGNGKRPNLETYYERVLKRKTFNKVLGHVNNILISAVLPTAFRVAKKRAPKVLGTTLVVGLLAGVGYFAFMLFRKRLGSMILAFRPRPNYF
modifications: full-length
notes: recombinant GDAP1 (full length), Abcam
For B2, the “methylation … by SMYD2” value with SMYD2 [1] is “methylated by SMYD2; also recorded: poor SMYD2 substrates”.

B3: PER2: recombinant PER2 (amino acids 691 to 900), N-terminal MBP-His fusion (protein, UniProt O15055 691-900, looked up, fragment)
chain: VEDAASGPESLDCLAGPALACGLSQEKEPFKKLGLTKEVLAAHTQKEEQSFLQKFKEIRKLSIFQSHCHYYLQERSKGQPSERTAPGLRNTSGIDSPWKKTGKNRKLKSKRVKPRDSSESTGSGGPVSARPPLVGLNATAWSPSDTSQSSCPAVPFPAPVPAAYSLPVFPAPGTVAAPPAPPHASFTVPAVPVDLQHQFAVQPPPFPAPL
modifications: N-terminal MBP-His fusion
notes: recombinant PER2 (amino acids 691 to 900), N-terminal MBP-His fusion
Turning to B3, the “kinetic model of SMYD2 methylation” value with SMYD2 [2] is on record as “consistent with substrate inhibition”. The “methylation … by SMYD2” value with SMYD2 [1] is given as “methylated by SMYD2; also recorded: at least as efficiently as the known substrate, p53”.

B4: MAPKAPK3: full-length recombinant MAPKAPK3, known SMYD2 substrate (protein, UniProt Q16644 1-382, looked up)
chain: MDGETAEEQGGPVPPPVAPGGPGLGGAPGGRREPKKYAVTDDYQLSKQVLGLGVNGKVLECFHRRTGQKCALKLLYDSPKARQEVDHHWQASGGPHIVCILDVYENMHHGKRCLLIIMECMEGGELFSRIQERGDQAFTEREAAEIMRDIGTAIQFLHSHNIAHRDVKPENLLYTSKEKDAVLKLTDFGFAKETTQNALQTPCYTPYYVAPEVLGPEKYDKSCDMWSLGVIMYILLCGFPPFYSNTGQAISPGMKRRIRLGQYGFPNPEWSEVSEDAKQLIRLLLKTDPTERLTITQFMNHPWINQSMVVPQTPLHTARVLQEDKDHWDEVKEEMTSALATMRVDYDQVKIKDLKTSNNRLLNKRRKKQAGSSSASQGCNNQ
modifications: full-length
notes: full-length recombinant MAPKAPK3, known SMYD2 substrate
Consider B4, for which the “methylation … by SMYD2” value in the test with SMYD2 [1] is “weaker than most of the newly identified SMYD2 substrates”.

B5: MAPKAPK3 (D353R and T356S): MAPKAPK3 with mutations predicted to enhance methylation (protein, UniProt Q16644 1-382, looked up, variant D353R T356S)
MAP kinase-activated protein …: B4 chain with D353R, T356S
Consider B5, for which the “methylation … by SMYD2” value with SMYD2 [1] is listed as “improved methylation of this protein”.

B6: CDC5L: recombinant CDC5L (amino acids 150 to 280), N-terminal GST fusion (protein, UniProt Q99459 150-280, looked up, fragment)
chain: EMLSEARARLANTQGKKAKRKAREKQLEEARRLAALQKRRELRAAGIEIQKKRKRKRGVDYNAEIPFEKKPALGFYDTSEENYQALDADFRKLRQQDLDGELRSEKEGRDRKKDKQHLKRKKESDLPSAIL
modifications: N-terminal GST fusion
notes: recombinant CDC5L (amino acids 150 to 280), N-terminal GST fusion
B6: in the test with SMYD2 [1], the “methylation … by SMYD2” value was “methylated by SMYD2; also recorded: at least as efficiently as the known substrate, p53”.

B7: ATP6V1G3: recombinant ATP6V1G3 (full length), N-terminal GST fusion (protein, UniProt Q96LB4 1-118, looked up)
chain: MTSQSQGIHQLLQAEKRAKDKLEEAKKRKGKRLKQAKEEAMVEIDQYRMQRDKEFRLKQSKIMGSQNNLSDEIEEQTLGKIQELNGHYNKYMESVMNQLLSMVCDMKPEIHVNYRATN
modifications: full-length N-terminal GST fusion
For the molecule B7, the “methylation … by SMYD2” value in the test with SMYD2 [1] is “methylated by SMYD2; also recorded: at least as efficiently as the known substrate, p53”.
